Assay results as given in publication PMC2856455 (Journal of molecular biology, 2010).

What was measured:
MDM2 = MDM2 (Homo sapiens, UniProt Q00987); assay: SPR-based competition binding assay, synthetic 25–109MDM2
MDMX = target: T1, MDMX (Homo sapiens, UniProt O15151); assay: SPR-based competition binding assay, synthetic 24–108MDMX
T1 sequence (O15151 24-108): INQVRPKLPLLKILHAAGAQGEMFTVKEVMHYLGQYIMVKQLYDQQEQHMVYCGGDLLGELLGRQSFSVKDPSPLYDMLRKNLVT

[1] = calculated binding free energy relative to PMI

## TSFAEYWNLASP [L10A-PMI]
MDM2; [1]
  ΔΔG(kcal/mol), PMI-MDM2: 3.28 kcal/mol
MDM2; comparison of binding affinities for MDM2 and MDMX
  preference between MDM2 and MDMX: higher binding affinity for MDMX than for MDM2
MDM2; mutation more deleterious to MDM2 than to MDMX
  difference in relative binding free energy, MDM2 versus MDMX: 1.0 kcal/mol
MDM2; relative to PMI
  Kd ratio, PMI-MDM2: 277
MDMX; [1]
  ΔΔG, PMI-MDMX: 2.28 kcal/mol
MDMX; relative to PMI
  Kd ratio (kcal/mol), PMI-MDMX: 50 kcal/mol
